From the DeepSol protein solubility set

Assay: soluble on expression in E. coli; label from the status in PepcDB or PDB records

Sequence	soluble on expression in E. coli
MSQLRADKKGTHRVAFDRNKKKLLKAATVCGICGKPVDKSLKYPHPLSAAIDHIVPIAKGGHPSALENLQLTHWQCNRQKSDKLFANQASNEPKTIGNRNLPQSRDWSSFAFKKLEHHHHHH	soluble
MLFLDKNLELNDTELDIYNYIVANLEKVVYMRIRDLATEAHVSTTTILRFCRKFGCNGFSEFRVKLQLYLEEQKLAQIDMADETTYIDFLKRTAQPEFKAQIQNAVEILRDRELVLFAGVGSSGVIAEYGAIYFSSLFTLALHIEDPLNHPFYHLSSKLSDKICMIAISVEGENEDIIRYIHQLKAQNCKVISITNSAKSTIARLSDANIAYYINKEMYQEANITSQLPALYTIENIAREIRTQIDKEKM	not soluble
MADDSVLPSPSEITSLADSSVFDSKVAEMSKENLCLASTSNVDEEMPQVEARVIMVQDAGKQEELLKALKEMKVPCVKMDSMEEFESLDSPEFENIFVVTDFQNSVFNDLYKADCRIVGPPVILNCAQRGEPLPFSCRPLYCTSMLNLVLCFTGFRKKEELVKLVTLVHHMGGVIRKECNSKVTHLVANCTQGEKFRVAVSLGTPIMKPEWIYKAWERRNEQCFCAAVDDFRNEFKVPPFQDCILSFLGFSDEEKHSMEEMTEMQGGSYLPVGDERCTHLIVEENTVKDLPFEPSKKLFVVKQEWFWGSIQMDARAGETMYLYEKANTPELKKSVSLLSLSTPNSNRKRRRLKETLAQLSRETDLSPFPPRKRPSAEHSLSIGSLLDISNTPESSIHYGETPKSCAKSSRSSTPVPPKQSARWQVAKELYQTESNYVNILATIIQLFQVPLEEEGQRGGPILAPEEIKTIFGSIPDIFDVHMKIKDDLEDLIANWDESRSIGDIFLKYAKDLVKTYPPFVNFFEMSKEMIIKCEKQKPRFHAFLKINQAKPECGRQSLVELLIRPVQRLPSVALLLNDLKKHTADENPDKSTLEKAIGSLKEVMTHINEDKRKTEAQKQIFDVVYEVDGCPANLLSSHRSLVQRVETVSLGEHPCDRGEQVTLFLFNDCLEIARKRHKVIGTFRSPHDRTRPPASLKHIHLMPLSQIKKVLDIRETEDCHNAFALLVRPPTEQANVLLSFQMTSEELPKESWLKMLCRHVANTICKADAENLMYVADPESFEVNTKDMDSTLSRASRAIKKTSKKVTRAFSFSKTPKRALRMALSSSHSSEGRSPPSSGKLAVSRLSSTSSLAGIPSPSLVSLPSFFERRSHTLSRSTTHLI	soluble
MGSDKIHHHHHHMSDSHQGSCLCGAVRFRTKGALRGVVYCHCSQCRKQSGHFYAATNVADADIVIEGTESITWYEASAFAGRGFCKTCGSVLFWKPRTQDYISVMAGAFDKPTGLKGDCHIFVGDKGDYYSIDDGLPQFEKSTPSIAVAE	not soluble
SLLIVYNEYLIHIYHSFQWAELQCETDSCIKMLLVADPQILGNTFDTKLYWPLANFDSDRHLKRTYKSVVQHAAPDVICFLGDLMDEGSVANDDQFAAYFTRFVNIFSQPTANTIMFYIPGDNDIGGEGLETIKSDRVLRFKQYFNEQDELTIDPMLRILNVNRISMTLPMNSAPSTEEPQPYTVLLSHMPILRWSDPFTYKVIDDFQPNVIFSAHEHKSRHVKTHRNQLTQGAPFEPLNTERSNRHEVVEFDLNYLKDTRELLEFIVPTCSYRMGEMKIGYGYAMFDGDKLRYTVLWTSQRFYQ	soluble
ANNGAHRDMDLNTFIASAEAIAPYLHSFVSAGWESAGNPAAQLLSALRPIGIEAEQAMFAATQGVNTHKGMIFILGLICGSVGWLKANQLKIDAQHIGETIRQACQFLVIDELKAKRDCEPETAGERIYRQYGLTGARGEAASGLAMVMQHALPAYQACLTKGASTEQALWHTLLVLMANNNDSNLVSRGGLAGLHFVQEQAQQLLAKGGFLYQEIEQALTALDSVLIEKHLS	not soluble
MSLTTPTMIAAVVEEANGPFVLRKLARPQPAPGQVLVQIEASGTNPLDAKIRAGEAPHAQQPLPAILGMDLAGTVVAVGPEVDSFRVGDAVFGLTGGVGGLQGTHAQFAAVDARLLASKPAALTMRQASVLPLVFITAWEGLVDRAQVQDGQTVLIQGGGGGVGHVAIQIALARGARVFATARGSDLEYVRDLGATPIDASREPEDYAAEHTAGQGFDLVYDTLGGPVLDASFSAVKRFGHVVSCLGWGTHKLAPLSFKQATYSGVFTLHTLLANEGLAHFGEMLREADALVQTGKLAPRLDPRTFSIAEIGSAYDAVLGRNDVPRQRGKIAITVEPQFNLHEQREGHHHHHH	soluble
MAISRELVDPNSSPREIEVSEPREVGITELVLRDAHQSLMATRMAMEDMVGACADIDAAGYWSVECWGGTTYDSCIRFLNEDPWERLRTFRKLMPNSRLQMLLRGQNLLGYRHYNDEVVDRFVDKSAENGMDVFRVFDAMNDPRNMAHAMAAVKKAGKHAQGTICYTISPVHTVEGYVKLAGQLLDMGADSIALKDMAALLKPQPAYDIIKAIKDTYGQKTQINLHCHSTTGVTEVSLMKAIEAGVDVVDTAISSMSLGPGHNPTESVAEMLEGTGYTTNLDYDRLHKIRDHFKAIRPKYKKFESKTLVDTSIFKSQIPGGMLSNMESQLRAQGAEDKMDEVMAEVPRVRKAAGFPPLVTPSSQIVGTQAVFNVMMGEYKRMTGEFADIMLGYYGASPADRDPKVVKLAEEQSGKKPITQRPADLLPPEWEKQSKEAATLKGFNGTDEDVLTYALFPQVAPVFFEHRAEGPHSVALTDAQLKAEAEGDEKSLAVAGPVTYNVNVGGTVREVTVQQATRASQPELAPEDPEDLEHHHHHH	soluble
MADEPLHYGEDYHFIHATSAASGLGVSVLPDLYCHTIQIVNICLVGRPDDHAFVLVDAGMPGSADDIVSVVEDRFGSGSRPQAIVLTHGHFDHVGAIVELVKHWNVPVYAHPAELPYLTGKASYPEPDASVEGGFIAKISPFFPNEPIQLGNRVQPLPADGTVPHLPEFRWIHTPGHTPGHISLFRPRDAALIAGDAFVTVRQDSLYKVLTQQIEISGPPRYYTIDWRAARESVRKLAALFPSVAITGHGAPVAGKELREGLTKLARDFDRIATPDYGKYVH	soluble
DPTQSVRAYYIQNGDSTKTVIIGQGWTEHVDWIGYVSKIWYDMGYNVLMPSQRGQFLSDGDNLTFGYQDKYDWLNWVKMVDERNGADSQVVFYGQSLGADTVLEAASVPGLSKSVKAVVSDAGYATLPELGSSLYNKAITAVSNALQSIGLPAITSLPFLSYDKIVAAMNARLIKEQGFSVDDLSATDAASKITIPLLLIHTQDDAFIPYTQSLELAAANHSANQEVWILPGTVGGHAAANNAILQYRQHLLAFLTPLLSVADAED	not soluble
SNAERRLCAILAADMAGYSRLMERNETDVLNRQKLYRRELIDPAIAQAGGQIVKTTGDGMLARFDTAQAALRCALEIQQAMQQREEDTPRKERIQYRIGINIGDIVLEDGDIFGDAVNVAARLEAISEPGAICVSDIVHQITQDRVSEPFTDLGLQKVKNITRPIRVWQWVPDADRDQSHDPQPSHVQH	soluble
MILVTGGARSGKSRHAEALIGDAPQVLYIATSQILDDEMAARIQHHKDGRPAHWRTAECWRHLDTLITADLAPDDAILLECITTMVTNLLFALGGENDPEQWDYAAMERAIDDEIQILIAACQRCPAKVVLVTNEVGMGIVPENRLARHFRDIAGRVNQRLAAAADEVWLVVSGIGVKIK	soluble
MPEISRDEVAHLAKLSRLALTDEELDRFAEQIDGIIGNVSAVQQVAAEGVEPMSHPHSIKTTMREDVVEQILTPEQALDQAPAVDQQRFVVPQILGEQD	not soluble
MRHVSNGDPVRVVIVTDGAYGAPAESGDYAQTRRRESTRAAAILGYGAPEFWNLPDRGLEYGERLIQRVLTAMEDHAAELVYAPSWWEVHPDHRVLALAATEAVRRCTRPLRLAMYEVGVPLQPNALLDITDLAERKASAVACFSSQLAQQDYDEQIASLNRFRTYTLPRTVRAAEGYLVLAAEELRNRIPRMMTQKDRLAVRGETGDTAATPLVSVIIPSMDGPRLKEALDSVALQTYPRIEAVVIDAKGEGHTPLPRWCGRFPLRFIPSDISLSRGRAADVGLEHAEGDYLVFLGEDDVFQPGDVASLVAEAARKQGTGLCSHADRRMTVFSGGVVDGSPRTGKPGKPAFLPLHAVLFDRSLAELRCRFDGDANVPEDGDFWDQAMQHVASIHPGACRHGHGLPGGEAGRHTIVRLPPWTSPAPLPPGASLARTPHPTERDSLRRRIQRAGRRIYETPPRGLTDALVRTAYRIWARLSSDSMITNDGKGTLEHHHHHH	not soluble
METALYLLPVTLGDTPLEQVLPSYNTEIIRGIRHFIVEDVRSARRFLKKVDREIDIDSLTFYPLNKHTSPEDISGYLKPLAGGASMGVISEAGCPAVADPGADVVAIAQRQKLKVIPLVGPSSIILSVMASGFNGQSFAFHGYLPIEPGERAKKLKTLEQRVYAESQTQLFIETPYRNHKMIEDILQNCRPQTKLCIAANITCEGEFIQTRTVKDWKGHIPELSKIPCIFLLYKLEHHHHHH	soluble
MSLRLADFGFTDGINEIIAITENEDGSWNAAPIGIIVEDSSSDTAKAKLYRNRTRANLERSGVLFANVTDDALVFAVSSFGNLNDDWYASPNPPIIKGAMAWCRFEAEMRSGVAHLKLTDGEIIEKRVRAINRGLSAVIEALVHATRYVAIKSDERRKELLERIHYYREIVQKCGSEREKRAFEIIMEKIGEGHHHHHH	soluble
MLIPAQENNVSLTATPSRIGQIMKYGFPGLDHVRSHSDYVLSYDRRNRVPHWVFEHLTAESVAKNDAVDRSKCDFKQDESIHPFFRSQNTDYRRSGYDRGHMAAAGNHRLHQKHCDETFYLSNMAPQVGQGFNRDAWNTLEAHVRRLTKTYSNVYVCTGPLYLPHKEDDGKSYVKYEVIGANTVAVPTHFYKVIVGESADHKLHMESYVMPNQVISNDTPISVFQVPPESVERSAGLLFFDQINRKQLTTINGKKVAAALEHHHHHH	soluble
MAADPVFKEALQCIRCASCTNVCPVFQLVSGQVYGYIYNGGIGSVLTAFFNSLEDAVDPQSLCIGCRRCAEVCPAKINIPDLVLKLRERVVTKQGLEHHHHHH	not soluble
MTEAMKITLSTQPADARWGEKATYSINNDGITLHLNGADDLGLIQRAARKIDGLGIKHVQLSGEGWDADRCWAFWQGYKAPKGTRKVVWPDLDDAQRQELDNRLMIIDWVRDTINAPAEELGPSQLAQRAVDLISNVAGDRVTYRITKGEDLREQGYMGLHTVGRGSERSPVLLALDYNPTGDKEAPVYACLVGKGITFDSGGYSIKQTAFMDSMKSDMGGAATVTGALAFAITRGLNKRVKLFLCCADNLISGNAFKLGDIITYRNGKKVEVMNTDAEGRLVLADGLIDASAQKPEMIIDAATLTGAAKTALGNDYHALFSFDDALAGRLLASAAQENEPFWRLPLAEFHRSQLPSNFAELNNTGSAAYPAGASTAAGFLSHFVENYQQGWLHIDCSATYRKAPVEQWSAGATGLGVRTIANLLTA	soluble
MADGINSTVTVERSDGPRHRGTAAGIGGLDLDLEDVTHKELIEARRTGDVGLVHSWELVTAVDGPGTRMTMFMSGCPLRCLYCHNPDTMGMKEGTVERVESIVKKIKRYRNVFKASGGGLTISGGEPLFQIAFTRRVLKEVHDAGIHTTIDTSGYLGARLTDEDLENIDLVLLDVKSGDEETYHRVSGGRELQPTIDFGNRLNAIGKPVWIRFVLVPGVSDAPENINNVADIVAQWKDNVERVEVLPFHNMGADKWHELGLNYELEDTKPPTQESVEFAKETFRSRGLTVY	not soluble
MRKMMQNHQNTRFYFSASLILFNDKEMGKRSNYHHLVAFGGFFKALPDDGDLLTRFVTVEKLKKLPHCKFPFFPVKKPSLSPKMQPSYDADDFMRRGFFGSFIGFRKRSSSKPGELYAKNVTYSQIFSRHLID	soluble
